Consider 1 compound from US20060233704A1, “Prochelator for the preparation of radiometal labeled molecules having improved biological properties” (priority 2000, published 2006).

The format of this data set is physicochemical. On the procedure:
In addition, the stability is higher. The reaction of ^90Y-DOTATOC or ^90Y-DOTAGA at 37° C. with the chelator DTPA results in ^90Y-DTPA.

`C[C@@H](O)[C@@H]1NC(=O)[C@H](CCCCN)NC(=O)[C@@H](Cc2c[nH]c3ccccc23)NC(=O)[C@H](Cc2ccc(O)cc2)NC(=O)[C@@H](NC(=O)[C@@H](Cc2ccccc2)NC(=O)CCC(C(=O)O)N2CCN(CC(=O)O)CCN(CC(=O)O)CCN(CC(=O)O)CC2)CSSC[C@@H](C(=O)N[C@H](CO)[C@@H](C)O)NC1=O` (single isomer, unassigned) [DOTAGA] had a half-life of 79 h.
